Laboratory results published in publication PMC8930772, “Seipin forms a flexible cage at lipid droplet formation sites” (Nature Structural & Molecular Biology, 2022).

Key:
[1] = molecular target: the molecule itself; assay: cryo-EM structure; purified Sei1-Ldb16 complex reconstituted in amphipol PmalC8, about 3.5 mg/ml; negative stain and cryo-EM; C10 then C5 symmetry
[2] = molecular target: the molecule itself; assay: negative-stain EM; WT lumenal domain oligomers from the SEC, 2D class averages

B1: yeast seipin Sei1 with C-terminal 3xFLAG-TEV-2xProteinA tag, purified from strain HAY60 (natural protein, S. cerevisiae, UniProt Q06058 1-285, looked up)
chain: MKINVSRPLQFLQWSSYIVVAFLIQLLIILPLSILIYHDFYLRLLPADSSNVVPLNTFNILNGVQFGTKFFQSIKSIPVGTDLPQTIDNGLSQLIPMRDNMEYKLDLNLQLYCQSKTDHLNLDNLLIDVYRGPGPLLGAPGGSNSKDEKIFHTSRPIVCLALTDSMSPQEIEQLGPSRLDVYDEEWLNTIRIEDKISLESSYETISVFLKTEIAQRNLIIHPESGIKFRMNFEQGLRNLMLRKRFLSYIIGISIFHCIICVLFFITGCTAFIFVRKGQEKSKKHS
notes: seipin Sei1 (Fld1), S. cerevisiae; tagged at the endogenous locus; The 2xProteinA part held the protein on IgG Sepharose and was cut off with TEV protease before SEC and cryo-EM; The deposited model holds residues 17-264 without 134-147; also called Fld1; source: S. cerevisiae strain HAY60, overproduced from the GAL1 promoter at the endogenous locus; purified (IgG Sepharose, TEV cleavage, …)
stoichiometry N [1]: 10

B2: seipin lumenal domain WT(47-235) with C-terminal 6xHis (domain or fragment, S. cerevisiae, UniProt Q06058 47-235, looked up)
chain: ADSSNVVPLNTFNILNGVQFGTKFFQSIKSIPVGTDLPQTIDNGLSQLIPMRDNMEYKLDLNLQLYCQSKTDHLNLDNLLIDVYRGPGPLLGAPGGSNSKDEKIFHTSRPIVCLALTDSMSPQEIEQLGPSRLDVYDEEWLNTIRIEDKISLESSYETISVFLKTEIAQRNLIIHPESGIKFRMNFEQG
notes: seipin Sei1, S. cerevisiae, lumenal domain lacking the TM segments, residues 47-235; also called WT lumenal domain; source: E. coli SHuffle T7 Express, purified (Ni-NTA), isolated in the absence of detergent; copies: 10
stoichiometry N [2]: 10
